Assay: soluble on expression in E. coli; label from the status in PepcDB or PDB records

Sequence	soluble on expression in E. coli
MGSDKIHHHHHHMTQNTPLFSMESVSVRHNSVPALDAVSWTLHRGAHCAVLGGNGAGKSTLLRLAAGAIRPDQHDGGTVLWFPRGSAEDSPIAVRTHCGLVSAEQQEHYLRRSWRITGEEIVLSGYFGTDMLYRPAGTAQRHAAARLAKALDAEHLMPVMLEAMSQGQLRKILLARAMVHSPQLLLLDEVCEGLDAAARREMLAAIDRAAALGTTVLMSGHRAGQFPDCIRQAVLLRQGRLVFTGGLHQALHLMRTTHQPLPAGASDTAAGQCSCCTPPPACAGAAPVVEIEHADVYLGRTPVLHDITWSILPGQNWVVRGPNGAGKSTLLRLLYGDQRQAWGGIVRWFGMAGPVPLEEVRRNVALVSDRVQALYGHDGYHSTRLELNGEELVHTGFYDSTGLWGKTPDAQQHAAALRWMDRLGIAALAGTDIRRMSYGTLRRFMLARALVRDPQLLILDEPLSGLDESARRIMLTTLSALMRSGRQLVLVTHHQEDIQPETTHELHLNAGRITYCGPVCPAGDTL	not soluble
MSLKITNVEAVALDVPIMVRHRKDPFVRQCNLVRIDTDSGISGYGYTSPGEWHSTAAKVVNDMFRDVLIGQNPCKINSVISSLSTRFNRHRATGAWASAVSMVDIGLWDLLGKLYGVPTSVLLGGARTEVPVYITFGLAEYSTEELVDTVSHLVDEGHTRFKMIVGGLRSRPITREESLRPGGSHWFQGFTEDLLLNDVKRVAAVREAIGPDKGLMVDGNGAFPLGEAKRLAQNLEPFNLIWFEEPVLGNDPDLLQRLRDQTTVPIAAGQNIGSLAAHRTLIESKSYDICQLNVTHCGGYSEALKIAHLAEAHNMPIATGGAQPHHNMHFHAGVQNGGLVEFHWLSWKVGEALFVDPPAPRNGFVSLTDEPGLGLEVRPDAIEKFRVEGHHHHHH	soluble
SMQELFNNLMELCKDSQRKFFYSDDVSASGRTYRIFSYNYASYSDWLLPDALECRGIMFEMDGEKPVRIASRPMEKFFNLNENPFTMNIDLNDVDYILTKEDGSLVSTYLDGDEILFKSKGSIKSEQALMANGILMNINHHRLRDRLKELAEDGFTANFEFVAPTNRIVLAYQEMKIILLNVRENETGEYISYDDIYKDATLRPYLVERYEIDSPKWIEEAKNAENIEGYVAVMKDGSHFKIKSDWYVSLHSTKSSLDNPEKLFKTIIDGASDDLKAMYADDEYSYRKIEAFETTYLKYLDRALFLVLDCHNKHCGKDRKTYAMEAQGVAKGAGMDHLFGIIMSLYQGYDSQEKVMCEIEQNFLKNYKKFIPEGY	soluble
VAFTEKQDALVSSSFEAFKANIPQYSVVFYTSILEKAPAAKDLFSFLANGVDPTNPKLTGHAEKLFALVRDSAGQLKASGTVVADAALGSVHAQKAVTDPQFVVVKEALLKTIKAAVGDKWSDELSRAWEVAYDELAAAIKKA	soluble
GMNLTELMERIPHLREILNIVREAFKDYDDPAHDISHTFRVMENASEIASREKCDLQKAIIAALLHDIKRPHEALTGVDHAESGAEYASGLLPTMGFDISFVAEVSKAIRSHRYSGGLTPTSLTGKILQDADRLDAIGAVAIARVFSYSGKTGTPLHSLQFSPRSSYSGNSRSSINHFHEKILKIRPETFWTETARKMAEDRYSFVVEFVQRFLAEWGQI	soluble
MDIVDEKWEEYLKNLDEMSKSALLETFNIGASHAATALSEMTGKEVNISVPDLKIIAIKNVPEVVGEDVKVAVYIELGKDFSSHAFFIADYEDALRMFDIIMGNPLGTTKEMDEMVKSSFMEVGNILISAFANALSEFLGITIEQTPPSLAIDFLPAILDFALADIGKYCDYTIILQTNIKISDVKFEEHFLLFPKPEDMKKILEKLLGGFA	soluble
MSLCAAHAARPLALVMRLGYETAMSQIESLFVTRLYRARLSEHGPAIDPEEMEASCYSIAEDDEAGQEWCEENGYPGYTSYASLTDLPWRFPIFADLVTSLDAHVAAFAADLEFDLDGRKLVLEDLWINILPQGGMHSSHLHPHSVISGTTYVAMPEGASALKLEDPRSGRMMAAPTRTKTARRELQPFIYMKPDVGDVLLWESWLRHEVPMNMSEEERISVSFNYRWDEGHHHHHH	soluble
MPEEYIMSSKACIYVLGGAANTAALFDFDGVYILDGGFAEKNPGFVAHVRDVSAVLLAAPTLGNLGTTSALLEQGKPLPVFTNTKPFKTAKPGSSGEIAKAIQEANSKILSVAPPLFNPKYPANIIYQSAAKGVLSLYILAGDVKDAEVITKALAGGNEAEVEKAAAEHGTIGVLLWRPAMTDQSVVRVLISGTSSLSRIQQSLDKAAKSLPFLNVPTVKSKDALSDIPAPAVPRPVAGKPSARPATTTGTATRPTRPAVPAASAPRALTSRAPAGPSRPTTTRNAAPAPRTAVPSRATVLTKTAPASKAPTRAPVPARSAPAPPRGAPAKPAANTAKAEPIAQKKTVGKVQGTAPSKPAPAAPASAATSPAPAPEAPRRDPNNVTIVLDDSLSPEDFNQGSAPMDIVVIPPTPEPPRHEVAQATHPEESIIDAEDLAKAPLEVDDVANLADVEDEIPPPVDAFKKPEPHPEPNVSGGSEEDKIPEPVDAFKKPDPVELDDFDPLKPSHPEPSAPVVPSDHIIIATPDPELPDIVAAVPFVSPSPKGPNDGLVKLDDELEKIAPGFEEPLIPQAPRDDGTLAECSEEVSKLVEISMDTDNSAEVAADLAKAVGEVTQLSADLQNLGLDEKTDEYVRKLSNQMIEDATLPFTSALASSIVTSNGSETNGHGEQAHAAQNGGIDHQKEIPKHDLMQSRSSVIENGAAVQYEKTDPALDDVLNACAQESEKIDASHPDNLHMPAAPGSAAPAKPVKFARPYYFDVVTVPRNEKLETSVAADGLQEFISKVRSRNVILASKDISGEQLQAILCGKQTWCDSAHPCNVIPTHSSPMLLDFRQKNEEQFAANNLQFSIPVEKQRTTVSSDAGAIEYELARVDLL	soluble
MEDEVFVFTPKGDLFKLAKGATVLDFAFHIHSKLGCKCIGAKVNGKNVQLKQKLNSGDQVEIMTSNTQTPKQDWLEHHHHHH	not soluble
TRELEDAQAMTEGERRKLASVIAYMTDGVIATNRNGAIILLNSPALELLNVSRETALEMPITSLLGLQENYTFEDLVEQQDSMLLEIERDDELTVLRVNFSVIQREHGKIDGLIAVIYDVT	not soluble
MSLIIDVLQHVPHEGPGLIANWARENQHQLKIHTLFEENEHVPKDSDFLIVLGGPMGINDTAEFPWLKDERKLIKRLSEQHKPVFGVCLGAQQIAATFGSEITVNKVKEVGWFPVKRTSDKLSFFPESLNVFHWHQDTFALPAGATRLFASEGCLNQAFLYGENIIGLQFHFEMEKAGIETILQIDEAFITPGKYVQSVEVMREKDVPEDNKQMLEAILDYLINPKTIEGHHHHHH	soluble
MIDADAIKMRILSMMEQLGMTPSAFADRAGISRSALTHITSGRNKVTLDMINKIMQGFDEWSAEWIIFGKGPQQSNKTAFENDLFSYSSVPEQELHTRTKDNCGIQSPSGRLEPEIKIVQMPAKQIERITVFYTDGSYQEFRSNKE	not soluble
MGSSHHHHHHSSGLVPRGSPTVTPTVNRENKPTCYPKAEISRLSASQIRNLNPVFGGSGPALTGLRNLGNTCYMNSILQCLCNAPHLADYFNRNCYQDDINRSNLLGHKGEVAEEFGIIMKALWTGQYRYISPKDFKITIGKINDQFAGYSQQDSQELLLFLMDGLHEDLNKADNRKRYKEENNDHLDDFKAAEHAWQKHKQLNESIIVALFQGQFKSTVQCLTCHKKSRTFEAFMYLSLPLASTSKCTLQDCLRLFSKEEKLTDNNRFYCSHCRARRDSLKKIEIWKLPPVLLVHLKRFSYDGRWKQKLQTSVDFPLENLDLSQYVIGPKNNLKKYNLFSVSNHYGGLDGGHYTAYCKNAARQRWFKFDDHEVSDISVSSVKSSAAYILFYTSLG	soluble
SLTRLEALKNIPRPAEECVEKTLNGEVPVDLFIARGHPNVRASNKRTLEVTKDVYLTRRGDCIIACCAEKAAGELSATVLEALMRSGLVVLIIDAGVVWDYVIGITPRSKPASKWRLVARKSNYVDDSTIAILADKAAYDLDRTLIRELKRGVPVRIIVGVCPGDSI	not soluble
MAHHHHHHMEIKTASKIVRRVSNVEAFDKSGSVFKGYQIWTDISPTIENDPNIMFVKCVVQQGSKKEKLTVVQIDPPGTGTPYDIDPTHAWNCNSQVDPMSFGDIGLLNHTNIPCVLDFLKHRYLKNQIYTTAVPLIVAINPYKDLGNTTNEWIRRYRDTADHTKLPPHVFTCAREALSNLHGVNKSQTIIVSGESGAGKTEATKQIMRYFASSKSGNMDLRIQTAIMAANPVLEAFGNAKTIRNNNSSRFGRFMQLVISHEGGIRYGSVVAFLLEKSRIITQDDNERSYHIFYQFLKGANSTMKSKFGLKGVTEYKLLNPNSTEVSGVDDVKDFEEVIESLKNMELSESDIEVIFSIVAGILTLGNVRLIEKQEAGLSDAAAIMDEDMGVFNKACELMYLDPELIKREILIKVTVAGGTKIEGRWNKNDAEVLKSSLCKAMYEKLFLWIIRHLNSRIEPEGGFKTFMGMLDIFGFEVFKNNSLEQLFINITNEMLQKNFVDIVFERESKLYKDEGISTAELKYTSNKEVINVLCEKGKSVLSYLEDQCLAPGGTDEKFVSSCATNLKENNKFTPAKVASNKNFIIQHTIGPIQYCAESFLLKNKDVLRGDLVEVIKDSPNPIVQQLFEGQVIEKGKIAKGSLIGSQFLNQLTSLMNLINSTEPHFIRCIKPNENKKPLEWCEPKILIQLHALSILEALVLRQLGYSYRRTFEEFLYQYKFVDIAAAEDSSVENQNKCVNILKLSGLSESMYKIGKSMVFLKQEGAKILTKIQREKLVEWENCVSVIEAAILKHKYKQKVNKNIPSLLRVQAHIRKKMVA	not soluble
MTTNKPLISVIMPVYNGGFTIRQAVESVFCQNIPLELLVIDDGSTDQTSEVLSVYRNRPDFHYLKNPHNIGAAASRNRGVQEAHGQYVAFLDADDWWENGKLQIQLDTLHETGRVLCSTGRELMNYDGTPTGKYIPVKETVSYRDLLKHNSINCSSVLLLRDVAAEFPMEHDDSHEDYLTWLKILRKYGPAAGIDRPLLKYRMSKTSKSGDKKKSAIMTYKVYRYMGYSHMRCILYFISYAIHGFWKYR	not soluble
MGSDKIHHHHHHMALANFIDRAATAASQVLADFHLEDFKAALEKQVVAVAFDDQAASCAEGQATLDLAVRLLARLYPVLAILPLGSAASFQAQALERLAKSINPKVGIRRSGKSATICVVAGVTRPPLRCPTFFMGSDGWAAKLSRTDPVGSGSSLLPYGAGAASCFGAANVFRTIFAAQLTGAELDETIDLSLYSYDKTKAGEAGPIDIPVDLGETHLVGLGAIGHGSLWALARQPGLTGRLHVIDHEAIELSNLQRYVLAGQAEIGMSKAVLAATALRSTAIGVEAHPLTWAEYVARHGDWVFDRVGVALDTAADRLAVQGALPRWIANAWTQEHDLGISRHGFDDGQACLCCMYLPSGKSKDEHHLIAEELGIPEAHEQVKTLLQTNAGVPNDFVVRVATAMAVPFEPLAPFVGQPLRSFYQQAICGGLVFQLSDGSRRVRTVVPMAFQSALAGIMLAAELVKHSAGFPVGPTTSTRVNLLRPLGSRLHDPKAKDSSGRCICSDDDFIAAYRRKYGKSIVQLSDVSAA	not soluble
